The values that follow come from publication PMC7061092 (Physiological Reports, 2020).

One data set deals with WT hERG (Homo sapiens, UniProt Q12809). Particulars: for Isochronal percentage of hERG block (IhERG tail): terfenadine 100 nM, thioridazine 100 nM, dofetilide 10 nM, chloroquine 1 µM, ketoconazole 3 µM, mean ± SEM. As for the experimental part: (§1) For transient transfection experiments, 24 hr after plating cells out, cells were transiently transfected with 0.5 µg of the F656V hERG construct using Lipofectamine^TM LTX (Invitrogen) according to the manufacturer's instructions. […] Cells were plated onto small sterilized glass coverslips 6 hr after transfection and recordings were made after at least 24 hr incubation at 37°C. Successfully transfected cells were identified using Dynabeads® (Invitrogen). All experimental data for the F656V hERG mutant channel were obtained from cells from a minimum of two transfections.
(§2) Recordings of hERG current (IhERG) and were made using an Axopatch 200 amplifier (Axon Instruments) and a CV201 head‐stage. Between 70%–80% of pipette series resistance was compensated. Voltage‐clamp commands were generated using “WinWCP” (John Dempster, Strathclyde University).
The A(x)1 and B(x)1 values were derived from Equation 1. […] Time courses of IhERG inhibition were fitted using either a single (Equation 3) exponential decay fit of the forms:(3) Y=Y^0-Plateau∗exp-K∗X+Plateau.
IhERG “tail” magnitude was measured relative to instantaneous current at −40 mV elicited by the brief (50 ms) depolarizing step that preceded the voltage command to +20 mV in the absence and presence of the drug. […] We also assessed the effects of drug block on IhERG time constants of deactivation. Tail currents on repolarization to −40mV were fitted using a biexponential to derive the fast τ1 and slow τ2 time constants of deactivation in control and after drug application.

The next data set addresses F656V hERG (Homo sapiens, UniProt Q12809, F656V). The experiment in a line: Whole-cell patch-clamp recording of IhERG in HEK 293 cells transiently transfected with F656V hERG at 37°C. The protocol: The F656V hERG mutation (Lees‐Miller, Duan, Teng, & Duff, 2000) was generated using the QuickChange® site‐directed mutagenesis kit (Stratagene). In brief, a pair of complementary oligonucleotide primers containing the mutation (forward primer sequence 5′[…]3′ and reverse primer sequence 5′ […]3′, synthesized by Sigma‐Genosys) was used in a PCR reaction (95°C for 1 min, 60°C for 1 min, 68°C for 16 min for 18 cycles) with hERG in a modified pcDNA3.0 vector as a DNA template. A DpnI digest of the PCR mix was then performed for 1 hr at 37°C. Competent DH5α Escherichia coli (Invitrogen) were transformed using standard procedures. The mutation was confirmed by sequencing of the entire open reading frame (Eurofins MWG Operon).
as §1, §2

Where [1] appears, read: 30 nM BeKm-1, absence of erythromycin.
Where [2] appears, read: 30 nM BeKm-1 in the maintained presence of 3 µM erythromycin.

Where two headings read alike, the source gives them in different places. No end group written: not given here.

For the compound `CCN(CC)CCCC(C)Nc1ccnc2cc(Cl)ccc12` (stereo not drawn) [Chloroquine, chloroquine], the “Isochronal percentage of hERG block (IhERG tail)” value is recorded as 48.4 ± 3.9 (n = 5) % at WT hERG (0 µM erythromycin), 70.8 ± 5.3 (n = 5) % at WT hERG (preincubation with 3 µM erythromycin) and 77.8 ± 0.6 (n = 4) % on WT hERG (preincubation with 30 µM erythromycin). Further, on WT hERG (pretreatment with low concentrations of erythromycin (≤30 µM)), the “nature of interaction with erythromycin pretreatment on hERG block” value is listed as “strong synergism”.
For “BeKm‐1: peptide (scorpion) toxin, in house Fmoc-synthesized, externally acting hERG blocker (RPTDIKCSESYQCFPVCKSRFGKTNGRCVNGFCDCF; ends and bridges not checked; cysteine pairing not given here; UniProt Q9BKB7 22-57, looked up)”, in the data set with WT hERG, the “% of IhERG block at steady state” value came to 51.4 ± 4.6%, the “WT IhERG tail block” value was 46.8 ± 5.0%, the “reduction of WT IhERG tail” value was found to be 52.2 ± 3.4% and the “time course of WT hERG block” value is “delayed”. In addition, in the data set with F656V hERG (setting [1]), the “reduction of F656V IhERG” value was 74.5 ± 1.6% and the “thalf of F656V IhERG inhibition” value worked out at 14.2 ± 3.3 s. Further, in the data set with F656V hERG (setting [2]), the “block of F656V IhERG at steady state” value is 69.4 ± 5.1% and the “thalf of F656V IhERG inhibition” value was found to be 20.7 ± 4.6 s.
